The values that follow come from patent US20200157194A1 (Regeneron, published 2020).

First the molecules themselves.
B10: recombinant human GREM1 (hGREM1-His; C-terminal 10His tagged, R&D, #5190-GR) (ligand)
chain: KKKGSQGAIPPPDKAQHNDSEQTQSPQQPGSRNRGRGQGRGTAMPGEEVLESSQEALHVTERKYLKRDWCKTQPLKQTIHEEGCNSRTIINRFCYGQCNSFYIPRHIRKEEGSFQSCSFCKPKKFTTMMVTLNCPELQPPTKKKRVTRVKQCRCISIDLDHHHHHHHHHH

Where “and” joins values, the source holds several entries; their conditions need not be identical. Equal entries are not always repeated. Where two headings read alike, the source gives them in different places.

The target in experiment [1] is B10. Briefly: cell-based or functional assay.
For experiment [2], the target named is T1, human GREM1 (hGREM1-His; SEQ ID NO: 595) (human, UniProt O60565 25-184).
T1 construct: also called biotin-hGREM1-His; recombinant human GREM1 protein
T1 sequence: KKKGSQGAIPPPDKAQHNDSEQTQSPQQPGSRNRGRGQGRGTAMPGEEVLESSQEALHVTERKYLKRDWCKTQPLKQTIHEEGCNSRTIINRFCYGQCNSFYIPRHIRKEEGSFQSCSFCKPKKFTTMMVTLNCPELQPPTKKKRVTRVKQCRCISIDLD
As to the kind of experiment: SPR, Biacore T200, 25 C, mAb captured, hGREM1-His injected.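 Also: Heparin-supplemented HBS-EP+ used as running buffer, association and dissociation phases followed, Kd computed as koff divided by kon and half-life derived from koff.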 A general note: Surface plasmon resonance follows binding to a sensor surface in real time, without labels.

Experiment [3] deals with recombinant human BMP4 (hBMP4; R&D, #314-BP/CF) (human). Briefly: cell-based or functional assay.
For experiment [4] the target is unchanged. As to the kind of experiment: cell-based or functional assay. The source holds these as a separate data set.
Experiment [5] has the same target. Briefly: cell-based or functional assay. The source holds these as a separate data set.

Chain of recombinant human BMP4 (hBMP4; R&D, #314-BP/CF) (human) (P12644 293-408): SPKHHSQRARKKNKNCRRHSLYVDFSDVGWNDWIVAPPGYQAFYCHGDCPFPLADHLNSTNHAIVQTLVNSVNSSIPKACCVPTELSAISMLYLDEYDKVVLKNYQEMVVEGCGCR

B1: H3M2788N (antibody, V domains shown)
VH: QVQLVESGGGVVQPGRSLRLSCAASGFTFSSHGMHWVRQAPGKGLEWVAVIWYDGSNKYHADSVKGRFTIYRDNSKNTLDLQMNSLRVEDTAMYYCAREDSNNEDLDYWGQGTLVTVSS
VL: DIQMTQSPSSLSASVGDRVTITCRASQGIRNDLGWFQQKPGKAPKRLIYVASNLQSGVPSRFSGSGSGTEFTLTISSLQPEDFATYYCLQHSNYPPWTFGQGTKVEIK
notes: H3M prefix marks the Fc (chimeric, mouse constant domains)
The Kd is the free concentration of one partner at which half of the binding sites on the other are occupied at equilibrium, for simple one-to-one binding. One may read the koff as the first-order rate constant of dissociation. A high value points to a short-lived complex. By kon is commonly meant the rate constant with which the complex forms. Read a low kon as slow association. B1: the “IC50 [M], inhibition of hGREM1-His, W-20-17/BRE-luc luciferase (200 pM hBMP4, 20 nM hGREM1-His)” value in experiment [1] worked out at 2.5e-08 M. In experiment [2], this molecule registered a Kd of 0.0042 µM, a koff of 0.00035 s⁻¹, a kon of 80000 M⁻¹ s⁻¹ and a t1/2 of 33 min.

B2: H2aM2899N (antibody, mouse IgG2, V domains shown)
VH: QVQLVQSGAEVKKPGASVKVSCKASGFTFTSYDINWVRQATGQGLEWMGWMNPKSGNTDYAQKFLGRVTLTRNTSKSTAYMELSSLRSEDTAVYYCARGKQLVFDYWGQGTLVTVSA
VL: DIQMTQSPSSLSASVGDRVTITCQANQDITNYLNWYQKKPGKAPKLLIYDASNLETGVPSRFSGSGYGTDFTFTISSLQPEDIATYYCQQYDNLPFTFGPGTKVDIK
notes: H2M prefix = mouse IgG2 Fc (here H2aM); also called H2M2899N
Take B2: the “IC50 [M], inhibition of hGREM1-His, W-20-17/BRE-luc luciferase (100 pM hBMP4, 10 nM hGREM1-His)” value in experiment [1] was found to be 2.1e-09 M. In experiment [2], this molecule registered a Kd of 0.27 µM, a koff of 0.002 s⁻¹, a kon of 8000 M⁻¹ s⁻¹ and a t1/2 of 5.8 min.

B3: H2bM2891N (antibody, mouse IgG2, V domains shown)
VH: EVQMVESGGGLVQPGGSLRLSCAASRFTLSNYWMGWVRQAPGKGLEWVANIKQDGSEKYYVDSVRGRFTISRDNAKNSLYLQMNSLRAEDTAVYYCARDYDFWRSFDYWGQGTLVTVPS
VL: DIQMTQSPSSVSASVGDRVTITCRASQGVSSWLAWYQQTPGKAPKLLIYVVSSLQSGVPSRFSGSGSGTDFTLTINSLQPEDFATYYCQQGNSFPYTFGQGTKLEIK
notes: H2M prefix = mouse IgG2 Fc (here H2bM); also called H2M2891N
For B3, in experiment [1], the “IC50 [M], inhibition of hGREM1-His, W-20-17/BRE-luc luciferase (100 pM hBMP4, 10 nM hGREM1-His)” value came out at 1.1e-09 M. Further, in experiment [2], the Kd was 0.06 µM, the koff worked out at 0.0012 s⁻¹, the kon came out at 20000 M⁻¹ s⁻¹ and the t1/2 was found to be 9.6 min.

B4: H2bM2906N (antibody, mouse IgG2, V domains shown)
VH: EVQMVESGGGLVQPGGSLRLSCAASGFTLSNYWMGWVRQAPGKGLEWVANIKQDGSEKYYVDSVRGRFTISRDNAKNSLYLQMNSLRAEDTAVYYCARDYDFWRSFDYWGQGTLVTVSS
VL: DIQMTQSPSSVSASVGDRVTITCRASQGVSSWLAWYQQKPGKTPKLLIYVVSSLQSGVPSRFSGRGSGTDFTLTINSLQPEDFATYYCQQGNSFPYTFGQGTKLEIK
notes: H2M prefix = mouse IgG2 Fc (here H2bM); also called H2M2906N
As to B4, in experiment [1], the “IC50 [M], inhibition of hGREM1-His, W-20-17/BRE-luc luciferase (100 pM hBMP4, 10 nM hGREM1-His)” value turned out to be 1.6e-09 M. In experiment [2], the Kd came out at 0.015 µM, the koff amounted to 0.0013 s⁻¹, the kon is 80000 M⁻¹ s⁻¹ and the t1/2 came out at 8.9 min.

B5: H2aM2901N (antibody, mouse IgG2, V domains shown)
VH: EVQLVESGGGLVKPGGSLRLSCAASGFTFSYYSMIWVRQAPGKGLEWVSSISSSSSYIYYADSVKGRFTISRDNAKKSMYLQMNSLRAEDTAVYYCARGSGYPDYWGQGTLVTVSS
VL: DIQMTQSPSSLSASVGDRVTITCRASQGINNYLAWYQQKPGKVPKLLIYAASTLRSGVPSRFSGSGSGTDFTLTISSLQPEDVATYYCQKYNSAPFTFGPGTKVDIK
notes: H2M prefix = mouse IgG2 Fc (here H2aM); also called H2M2901N
For B5, the “IC50 [M], inhibition of hGREM1-His, W-20-17/BRE-luc luciferase (100 pM hBMP4, 10 nM hGREM1-His)” value in experiment [1] amounted to 1.7e-09 M. In addition, in experiment [2], the Kd worked out at 0.0088 µM, the koff came out at 0.00145 s⁻¹, the kon was 164000 M⁻¹ s⁻¹ and the t1/2 turned out to be 8 min.

B6: H2bM2782N (antibody, mouse IgG2, V domains shown)
VH: EVQLVESGGGLVQPGGSLRLSCAASGFTFSSYSMNWVRQAPGKGLEWVSSISSSSNYINYADSIKGRFTISRDNAKNSLYLQMNSLRAEDTAVYYCARVNWDYPFDCWGRGTLVTVSS
VL: DIQMTQSPSSLSASVGDRVTITCRASQDIRHYLVWYQQKPGKVPKLLIYAASTLQSGVPSRFSGSGSGTDFILTISSLQPEDVATYYCQKYNSAPFTFGPGTKVDIK
notes: H2M prefix = mouse IgG2 Fc (here H2bM); also called H2M2782N
B6: the “IC50 [M], inhibition of hGREM1-His, W-20-17/BRE-luc luciferase (200 pM hBMP4, 20 nM hGREM1-His)” value in experiment [1] is 3.5e-09 M. In experiment [2], the Kd came out at 0.0153 µM, the koff was 0.00189 s⁻¹, the kon came to 123000 M⁻¹ s⁻¹ and the t1/2 turned out to be 6.1 min.

B7: H2aM2898N (antibody, mouse IgG2, V domains shown)
VH: EVQLVESGGGLVQPGGSLRLSCAASGFTFSIYDMHWVRQATGKGLEWVSGIGNAGDTYYAGSVKGRFTISRENAKNSLYLQMNSLRAGDTAVYYCAREGPNYYYYGMDVWGQGTTVTVSS
VL: AIQMTQSPSSLSASVGDRVTITCRASQGIRDDLGWYQQKPGKAPKLLIYAASSLQSGVPSRFSGSGSGTDFTLTISSLQPEDFATYYCLQDYNYPWTFGQGTKVEIK
notes: H2M prefix = mouse IgG2 Fc (here H2aM); also called H2M2898N
For the molecule B7, the “IC50 [M], inhibition of hGREM1-His, W-20-17/BRE-luc luciferase (100 pM hBMP4, 10 nM hGREM1-His)” value in experiment [1] came out at 1.4e-09 M. Besides, in experiment [2], the binding result was “no binding (tested: 11 to 100 nM hGREM1-His injected)”.

B8: H2bM2786N (antibody, mouse IgG2, V domains shown)
VH: EVHLLESGGGLVQPGGSLRLSCAASGFTFSSYVMNWVRQAPGKGLEWVSAISGSGGSTYYGDSVKGRSTISRDNSKNTLYLQMKSLRAEDTAVYYCAKGDIAPIVFDAFDIWGQGTMVTVSS
VL: DIQMTQSPSSLSASVGDRVTITCQASQDISNCLNWYQHKPGKAPKLLIYDASYLETGVPSRFSGSGSGTDFTFTISSLQPEDIATYYCQQYDNLPYTFGQGTKLEIK
notes: H2M prefix = mouse IgG2 Fc (here H2bM); also called H2M2786N
For B8, the “IC50 [M], inhibition of hGREM1-His, W-20-17/BRE-luc luciferase (200 pM hBMP4, 20 nM hGREM1-His)” value in experiment [1] stood at 1.9e-08 M. Further, in experiment [2], binding was put at a Kd of 0.033 µM, the koff is 0.006 s⁻¹, the kon turned out to be 180000 M⁻¹ s⁻¹ and the t1/2 turned out to be 1.9 min.

B9: H3M2929N (antibody, V domains shown)
VH: QVQLVESGGGVVQPGRSLRLSCAASGFIFSSYGMHWVRQAPGKGLEWVAVIWNDGSNKYSADSVKGRFTVSRDNSKNTLYLQMNSLKAEDTAVYYCARDGEWEVFDYWGQGTLVTVSS
VL: DIVMTQSPVTLSASPGERATLSCRASQSVRSNLAWYQEKPGQAPRLLIYGASTRATGIPARFSGSGSGTEFTLTISSLQSEDFAVYYCQQYNDWPPWTFGQGTKVEIK
notes: as for B1
Take B9: the “IC50 [M], inhibition of hGREM1-His, W-20-17/BRE-luc luciferase (100 pM hBMP4, 10 nM hGREM1-His)” value in experiment [1] was 2.2e-09 M. In experiment [2], this molecule displayed a Kd of 0.029 µM, a koff of 0.00362 s⁻¹, a kon of 125000 M⁻¹ s⁻¹ and a t1/2 of 3 min.

On to B10, for which, in experiment [3], the “hGrem1-His IC50 (nM), inhibition of 100 pM hBMP4, W-20-17/BRE-luc luciferase” value is 6 nM and 4.3 nM and 4.2 nM and 5.4 nM; the “hGrem1-His IC50 (nM), inhibition of 200 pM hBMP4, W-20-17/BRE-luc luciferase” value was found to be 10.3 nM. Also, the “hGREM1-His, IC50 (M); W-20-17 cell differentiation assay (alkaline phosphatase)” value in experiment [4] was 4.4e-09 M. Besides, the “hGrem1-His IC50 (nM), inhibition of 100 pM hBMP4, W-20-17/BRE-luc luciferase” value in experiment [5] was determined as 2.9 nM.

B11: H1M2907N (antibody, V domains shown)
VH: QVQLVESGGGVVQPGRSLRLSCAASGFTFSSYGMHWVRQAPGKGLEWVAIIWNDGSNKYYVDSVKGRFTISRANSKNTLYLQMNSLRAEDTAVYYCARDGLEPDAFDIWGQGTMVTVSS
VL: EIVLTQSPATLSLSPGERATLSCRASQSVSSFLAWYQQKPGQAPRLLIYDASNRATGIPARFSGSGSGTDFTLTISSLEPEDFAVYYCQQRSNWPPYTFGQGTKLEIK
notes: H1M prefix marks the Fc (chimeric, mouse constant domains)
B11: the “IC50 [M], inhibition of hGREM1-His, W-20-17/BRE-luc luciferase (100 pM hBMP4, 10 nM hGREM1-His)” value in experiment [1] was 1.8e-09 M. In experiment [2], this molecule displayed a Kd of 0.0453 µM, a koff of 0.00281 s⁻¹, a kon of 62000 M⁻¹ s⁻¹ and a t1/2 of 4.1 min.
